B1: NR2F2 (parent)
chain: NIPFFPDLQITDQVALLRLTWSEL
B2: MYL5 (parent)
chain: DVAGNLDYKALSYVITHGEEKEE

Variants of: B1
Assay: protein stability index of a GFP-peptide fusion (GPS, HEK-293T) (PSI 1-6); higher = more stable
Settings: c terminus: a fixed tail appended
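Also: lentivirally expressed fusions sorted by FACS into six bins by GFP to DsRed ratio, PSI derived from sequencing read proportions per bin multiplied by bin number.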

Going from NIPFFPDLQITDQVALLRLTWSCL to NIPFFPDLQITDQVALLRLTWSDL, the protein stability index falls from 3.21 to 3.12.

Compared with NIPFFPDLQITDQVALLRLTWSFL, NIPFFPDLQITDQVALLRLTWSGL is lower in protein stability index: 3.75 for the first, 2.17 for the second.

Going from NIPFFPDLQITDQVALLRLTWSHL to NIPFFPDLQITDQVALLRLTWSIL, the protein stability index falls from 3.17 to 2.96.

First: NIPFFPDLQITDQVALLRLTWSKL
Second: NIPFFPDLQITDQVALLRLTWSLL
The protein stability index of the first is lower: 1.55 for the first, 2.57 for the second.

Going from NIPFFPDLQITDQVALLRLTWSML to NIPFFPDLQITDQVALLRLTWSNL, the protein stability index rises from 3.42 to 3.71.

Compared with NIPFFPDLQITDQVALLRLTWSPL, NIPFFPDLQITDQVALLRLTWSQL is lower in protein stability index: 2.24 for the first, 2.12 for the second.

Compared with NIPFFPDLQITDQVALLRLTWSRL, NIPFFPDLQITDQVALLRLTWSSL is higher in protein stability index: 2.02 for the first, 2.97 for the second.

Compared with NIPFFPDLQITDQVALLRLTWSTL, NIPFFPDLQITDQVALLRLTWSVL is lower in protein stability index: 3.56 for the first, 1.76 for the second.

Going from NIPFFPDLQITDQVALLRLTWSWL to NIPFFPDLQITDQVALLRLTWSYL, the protein stability index falls from 3.24 to 2.74.

Going from NIPFFPDLQITDQVALLRLTWSEA to NIPFFPDLQITDQVALLRLTWSEC, the protein stability index rises from 1.64 to 2.62.

First: NIPFFPDLQITDQVALLRLTWSED
Second: NIPFFPDLQITDQVALLRLTWSEE
The protein stability index of the first is higher: 2.11 for the first, 2.02 for the second.

First: NIPFFPDLQITDQVALLRLTWSEF
Second: NIPFFPDLQITDQVALLRLTWSEG
The protein stability index of the first is higher: 1.99 for the first, 1.65 for the second.

First: NIPFFPDLQITDQVALLRLTWSEH
Second: NIPFFPDLQITDQVALLRLTWSEK
The protein stability index of the first is higher: 2.68 for the first, 2.25 for the second.

Compared with NIPFFPDLQITDQVALLRLTWSEM, NIPFFPDLQITDQVALLRLTWSEN is lower in protein stability index: 2.87 for the first, 1.97 for the second.

Going from NIPFFPDLQITDQVALLRLTWSEP to NIPFFPDLQITDQVALLRLTWSEQ, the protein stability index rises from 1.88 to 1.9.

Going from NIPFFPDLQITDQVALLRLTWSER to NIPFFPDLQITDQVALLRLTWSES, the protein stability index falls from 1.96 to 1.9.

Going from NIPFFPDLQITDQVALLRLTWSET to NIPFFPDLQITDQVALLRLTWSEV, the protein stability index rises from 1.98 to 2.22.

Compared with NIPFFPDLQITDQVALLRLTWSEW, NIPFFPDLQITDQVALLRLTWSEY is lower in protein stability index: 2.55 for the first, 1.65 for the second.

Variants of: B2
Assay: as above
Settings: c terminus: native

Compared with DVAGNLDYKALSSVITHGEEKEE, DVAGNLDYKALSYVKTHGEEKEE is lower in protein stability index: 2.97 for the first, 2.19 for the second.

Compared with DVAGGLDYKALSYVITHGEEKEE, DVAGNLDYKALSYVITHEEEKEE is lower in protein stability index: 2.88 for the first, 2.1 for the second.

Going from DVAGNLDYKALSYVITHGEEKYE to DVAGNLDYKALSKVITHGEEKEE, the protein stability index falls from 4.13 to 2.46.

Compared with DVAGNLDYKALSYVITHREEKEE, DVAGNLDYKALGYVITHGEEKEE is higher in protein stability index: 2.43 for the first, 2.54 for the second.

First: DVAGNLDYKALSYVITHGEPKEE
Second: DVAGNLDYYALSYVITHGEEKEE
The protein stability index of the first is lower: 1.3 for the first, 2.3 for the second.

First: DVAGNLDYKALSYDITHGEEKEE
Second: DVAGNTDYKALSYVITHGEEKEE
The protein stability index of the first is higher: 2.97 for the first, 2.82 for the second.

Going from DVAGNLDYKALSYVITHGEEKEV to RVAGNLDYKALSYVITHGEEKEE, the protein stability index rises from 2.5 to 2.74.

First: DVAGNLDYKALSYRITHGEEKEE
Second: DVAGNLDYKALSYVITLGEEKEE
The protein stability index of the first is lower: 1.31 for the first, 2.23 for the second.

First: DVAGNLDYKAESYVITHGEEKEE
Second: DVAGNLDYKALSYVITHQEEKEE
The protein stability index of the first is higher: 2.64 for the first, 1.94 for the second.

First: DVAGNLDYKHLSYVITHGEEKEE
Second: DVAGNLDYKALVYVITHGEEKEE
The protein stability index of the first is higher: 2 for the first, 1.73 for the second.

First: DVAGNLDYKALSAVITHGEEKEE
Second: DVAGNLDYKALLYVITHGEEKEE
The protein stability index of the first is higher: 2.7 for the first, 1.77 for the second.

Going from DVAGNLDYKALSYVITHGEFKEE to DVAGNLQYKALSYVITHGEEKEE, the protein stability index falls from 2.78 to 1.64.

First: DVAGNLDYKALSYVIMHGEEKEE
Second: DVAGNLDYKALSEVITHGEEKEE
The protein stability index of the first is lower: 1.18 for the first, 2.9 for the second.

First: DVYGNLDYKALSYVITHGEEKEE
Second: DVAGNLDYKALSHVITHGEEKEE
The protein stability index of the first is higher: 2.15 for the first, 2.12 for the second.

Going from DVAGNLDYKALSYVITHGEIKEE to DVAGNYDYKALSYVITHGEEKEE, the protein stability index rises from 1.81 to 1.93.

Going from DVAGNLDIKALSYVITHGEEKEE to DVAGNLDNKALSYVITHGEEKEE, the protein stability index falls from 2.11 to 1.56.

First: DVAGNLDYKALSYVITHGEVKEE
Second: DVAGNLDYKALSFVITHGEEKEE
The protein stability index of the first is lower: 1.27 for the first, 1.8 for the second.

Compared with DVAGNLDYKALSYVITHGFEKEE, DVAGNLDYKNLSYVITHGEEKEE is lower in protein stability index: 3.04 for the first, 2.48 for the second.

Compared with DVAGNLDYKALSYTITHGEEKEE, SVAGNLDYKALSYVITHGEEKEE is higher in protein stability index: 2.14 for the first, 2.46 for the second.

First: DVAGNLDYKALSYVITHGEEKET
Second: DVAGNLDYKALSYVHTHGEEKEE
The protein stability index of the first is higher: 4.54 for the first, 3.3 for the second.

First: DVAGNLDYKALSCVITHGEEKEE
Second: DVAGNLDYKALSYVITHGEEKKE
The protein stability index of the first is lower: 2.63 for the first, 5.21 for the second.

Compared with DVAGNNDYKALSYVITHGEEKEE, DVAGNLDDKALSYVITHGEEKEE is lower in protein stability index: 3.84 for the first, 1.81 for the second.

First: DVAGNVDYKALSYVITHGEEKEE
Second: DVAGFLDYKALSYVITHGEEKEE
The protein stability index of the first is lower: 1.36 for the first, 1.87 for the second.

Going from QVAGNLDYKALSYVITHGEEKEE to DVAGNLDYKALSYVITHGIEKEE, the protein stability index rises from 2.1 to 2.19.

Compared with DVAGNLDYRALSYVITHGEEKEE, DVAGNLDYKALSYVIGHGEEKEE is higher in protein stability index: 1.35 for the first, 3.04 for the second.

Going from DVKGNLDYKALSYVITHGEEKEE to DVAGNLDYKQLSYVITHGEEKEE, the protein stability index falls from 2.15 to 2.

First: DVAGNLDYHALSYVITHGEEKEE
Second: DYAGNLDYKALSYVITHGEEKEE
The protein stability index of the first is lower: 1.53 for the first, 4.5 for the second.

Compared with DVAGNLGYKALSYVITHGEEKEE, DVHGNLDYKALSYVITHGEEKEE is lower in protein stability index: 2.02 for the first, 1.8 for the second.

Compared with DVAGNLDYKALSYVMTHGEEKEE, DHAGNLDYKALSYVITHGEEKEE is higher in protein stability index: 1.82 for the first, 1.92 for the second.

Going from DVAGNLDYKALSYVIKHGEEKEE to DVAGNLTYKALSYVITHGEEKEE, the protein stability index falls from 2.65 to 1.57.

Reference: the supplement of paper PMC10567573
